Measured values: patent US20230181756A1, “CCR7 ANTIBODY DRUG CONJUGATES FOR TREATING CANCER” (Novartis AG, priority 2020, published 2023)

T1: human CCR7 (NIH3T3.hCCR7 cells) (Homo sapiens, UniProt P32248)
T1 construct: Full length human, cyno and mouse CCR7 genes were synthesized; expressed in transfected cells; host or cells: NIH/3T3 (retroviral transduction)
T1 sequence (P32248 25-378): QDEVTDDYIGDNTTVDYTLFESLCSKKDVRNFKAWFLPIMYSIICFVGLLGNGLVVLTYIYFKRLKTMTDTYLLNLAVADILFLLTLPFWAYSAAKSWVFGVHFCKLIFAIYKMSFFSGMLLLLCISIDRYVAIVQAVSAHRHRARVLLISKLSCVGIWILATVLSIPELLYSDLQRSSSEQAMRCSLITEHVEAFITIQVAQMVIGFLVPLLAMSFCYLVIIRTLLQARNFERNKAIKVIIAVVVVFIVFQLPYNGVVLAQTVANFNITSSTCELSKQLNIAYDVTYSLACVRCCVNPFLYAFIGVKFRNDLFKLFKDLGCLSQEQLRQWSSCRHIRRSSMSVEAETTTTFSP

B1: 674J13.CysMab.DAPA.AURIX2 (conjugate)
heavy: DVQLQESGPGLVKPSQTLSLTCTVSGYSITSGYSWHWIRQHPGKGLEWMAHIHSSGSTNYNPSLKSRITISRDTSKNQFSLKLSSVTAADTAVYYCARGGVQAFAYWGQGTLVTVSSASTKGPSVFPLAPSSKSTSGGTAALGCLVKDYFPCPVTVSWNSGALTSGVHTFPAVLQSSGLYSLSSVVTVPSSSLGTQTYICNVNHKPSNTKVDKRVEPKSCDKTHTCPPCPAPELLGGPSVFLFPPKPKDTLMISRTPEVTCVVVAVSHEDPEVKFNWYVDGVEVHNAKTKPREEQYNSTYRVVSVLTVLHQDWLNGKEYKCKVSNKALAAPIEKTISKAKGQPREPQVYTLPPSREEMTKNQVSLTCLVKGFYPCDIAVEWESNGQPENNYKTTPPVLDSDGSFFLYSKLTVDKSRWQQGNVFSCSVMHEALHNHYTQKSLSLSPGK
light: EIVLTQSPATLSASPGERVTMSCSASSSVIYMHWYQQKPGQAPRRWIYDTSKLASGVPARFSGSGSGTDYTLTISSMEPEDAAVYYCQQWSSNPLTFGQGTKLEIKRTVAAPSVFIFPPSDEQLKSGTASVVCLLNNFYPREAKVQWKVDNALQSGNSQESVTEQDSKDSTYSLSSTLTLSKADYEKHKVYACEVTHQGLSSPVTKSFNRGEC
B2: 121G12 humanized CysMab: humanized anti-CCR7 antibody 121G12, CysMab, Fc wild type (antibody, V domains shown)
VH: EVQLVESGGGLVKPGGSLRLSCAASGFTFSTYAMSWVRQAPGKGLEWVATISDAGSYSYYPDNVKGRFTISRDNAKNSLYLQMNSLRAEDTAVYYCARRGSRYEEYYVMDYWGQGTTVTVSS
VL: EIVLTQSPATLSVSPGERVTLSCRASQSISNNLHWYQQKPGQAPRLLIKYASQSISGIPARFSGSGSGTDFTLTISSVEPEDFGVYFCQQSSSWLTFGQGTKLEIK

What was measured:
DEL = assay: ADC cell viability assay (CellTiter-Glo, four days); assay type: cell-based; conditions: CCR7 receptor levels ~100,000
Procedure: (§1) Cytotoxic effects after binding of directly conjugated antibodies (ADCs) with various payloads and their internalization into CCR7(+) cells were studied by assessing cell viability after four days of treatment. Three fold dilutions of the ADCs were added to 384-well bottom white plates in triplicates ([…]). […] Cells were harvested (adherent cells were detached with Accutase) and resuspended to approximately 2×10^4 cells/ml. Cells were added to 384-well plates on top of the antibody (20 μl/well). The plates were incubated for four days at 37° C. and 5% CO2. Subsequently, 20 µl/well of CellTiter-Glo solution (CellTiter-Glo® Luminescent Cell Viability Assay; Promega, #G7571) was prepared and added to the cells. Cell viability was determined by the luminescence signal, which was measured after 10 min of incubation at 22° C. and 400 rpm with the Envision reader. IC50 values were calculated using the Graphpad Prism software.

KE97 = assay: as above; assay type: cell-based; conditions: KE97, CCR7 receptor levels ~100,000
Procedure: as §1

NCI-H82 = assay: as above; assay type: cell-based; conditions: NCI-H82 (Small cell lung cancer), CCR7 receptor levels 0
Procedure: as §1
(§2) To assess the ADCs for target-specificity and receptor-level dependency, ADC activity was tested across cell lines with different CCR7 receptor levels. […] Cell lines were chosen based on similar sensitivity to payload.

DND-41 = assay: as above; assay type: cell-based; conditions: DND-41 (T cell leukemia), CCR7 receptor levels 1,700
Procedure: as §1, §2

SR786 = assay: as above; assay type: cell-based; conditions: SR786, CCR7 receptor levels ~28,000
Procedure: as §1, §2

CML-T1 = assay: as above; assay type: cell-based; conditions: CML-T1, CCR7 receptor levels ~29,000
Procedure: as §1, §2

NIH3T3 cells = assay: FACS binding, selectivity
Procedure: (§3) The affinity of various antibodies and ADCs to CCR7 and its species orthologues was determined using FACS. Purified IgGs were titrated to determine EC50 values for binding to cell surface expressed CCR7.
(§4) For this purpose, CCR7 positive cells were harvested (adherent cells were detached with Accutase), washed twice with FACS buffer (PBS/3% FCS/0.02% sodium azide) and diluted to approximately 2×10^6 cells/ml in FACS buffer. All subsequent steps were done on ice to prevent internalization of the receptor. 100 μl cell suspension/well were transferred into 96-well U-bottom plates (Falcon). 2×10^5 cells/well were incubated with a serial dilution of antibody concentrations of the anti-CCR7 antibody-of-interest ranging across several logs, starting at a high of 100 nM for 60 minutes at 4° C., gently shaking. […] After a final wash, cells were resuspended in 100 μl of FACS buffer containing 0.2 μg/ml DAPI followed by readout on the flow cytometry machine (BD LSRFortessa Cell Analyzer; Cat #647177). Mean fluorescence intensity (MFI) of live, single cells was calculated in Flowjo 10.0.8 and exported into Graphpad Prism6 for EC50 determination.
(§5) Selectivity was assessed by measuring apparent binding affinities to isogenic cell pairs engineered to overexpress CCR7 as well as cell lines expressing CCR7 paralogs, e.g., CCR9, CCR6, CXCR4 and CCR8.

[1] = tested on: PF382 cells (CCR7−/CCR9+/CCR6+); assay: FACS binding, selectivity
Procedure: as §3, §4, §5

CXCR4 (HEK293-CXCR4) = target: T2, CXCR4 (HEK293-CXCR4) (Homo sapiens, UniProt P61073); assay: FACS binding, selectivity (CCR7 paralogs)
T2 construct: expressed in transfected cells; host or cells: HEK293
T2 sequence (P61073 whole entry, species assumed): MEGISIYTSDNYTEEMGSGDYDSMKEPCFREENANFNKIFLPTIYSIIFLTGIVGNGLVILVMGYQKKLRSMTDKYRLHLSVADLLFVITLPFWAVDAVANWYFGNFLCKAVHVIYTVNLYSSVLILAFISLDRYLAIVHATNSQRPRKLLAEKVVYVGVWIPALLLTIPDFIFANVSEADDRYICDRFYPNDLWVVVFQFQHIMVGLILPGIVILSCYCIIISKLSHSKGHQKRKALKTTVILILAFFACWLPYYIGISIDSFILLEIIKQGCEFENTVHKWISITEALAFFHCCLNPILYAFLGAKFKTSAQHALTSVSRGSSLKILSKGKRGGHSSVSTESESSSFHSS
Procedure: as §3, §4, §5

CCR8 (CHO-CCR8) = target: T3, CCR8 (CHO-CCR8) (Homo sapiens, UniProt P51685); assay: FACS binding, selectivity (CCR7 paralogs)
T3 construct: expressed in transfected cells; host or cells: CHO
T3 sequence (P51685 whole entry, species assumed): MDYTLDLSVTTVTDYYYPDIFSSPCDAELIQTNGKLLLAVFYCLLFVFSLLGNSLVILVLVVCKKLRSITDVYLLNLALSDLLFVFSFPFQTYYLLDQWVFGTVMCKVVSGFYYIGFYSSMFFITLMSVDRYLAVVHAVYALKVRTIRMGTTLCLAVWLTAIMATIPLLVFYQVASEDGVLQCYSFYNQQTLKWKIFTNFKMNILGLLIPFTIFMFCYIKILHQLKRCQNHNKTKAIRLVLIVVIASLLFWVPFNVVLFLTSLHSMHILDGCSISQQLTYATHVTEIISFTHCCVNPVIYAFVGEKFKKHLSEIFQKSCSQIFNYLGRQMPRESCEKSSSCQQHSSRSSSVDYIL
Procedure: as §3, §4, §5

[2] = tested on: CCR7 and CD20 expressing JVM2 cells; assay: surrogate ADCC reporter assay (Jurkat-V158 effector cells); assay type: cell-based; conditions: JVM2 target cells and Jurkat-V158 effector cells
Procedure: Capacity of candidate antibodies to mediate ADCC was assessed using a surrogate ADCC reporter assay. CCR7 and CD20 expressing JVM2 cells were used as target cells. JVM2 cells were washed and re-suspended at 8×10^4 cells/ml cells/ml. Effector cells in this assay were a Jurkat cell line stably expressing CD16V158 and an NFAT dependent luciferase reporter (Jurkat-V158); expression of luciferase is a surrogate for canonical ADCC signaling through CD16. Briefly, Jurkat-V158 cells grown in suspension were spun down to remove spent media, the pellet was resuspended in assay media and adjusted to 1.6×10^6 cells/ml cells/mL. Mix equal volumes of effector and target cells to make a master mix of cells yielding a target to effector cell ratio of 1:5 or 1:20. A titration of antibody was diluted in assay media with a final top concentration of 50 ug/mL in the assay well. 12.5 uL of Ab solution was added to a 384 well round bottom plate and then 12.5 ul of the master cell mix was added. Antibody and cells were mixed well by pipetting and incubated for 4 hours at 37° C. in 5% CO2. Following incubation, 15 uL of Bright Glo substrate (Promega #G7572) was added to each well and shaken for 5 min at RT at 1050 rpm. Luminescent signal was read on the Envision plate reader (Perkin Elmer). […]

[3] = target: T1, human CCR7 (NIH3T3.hCCR7 cells); assay: FACS binding to cell surface expressed CCR7
Procedure: as §3, §4
Selectivity was assessed by measuring apparent binding affinities to isogenic cell pairs engineered to overexpress CCR7 as well as cell lines expressing CCR7 paralogs, e.g., CCR9, CCR6, CXCR4 and CCR8. […]

Molecule	AMAX, cell viability assay (DEL)	AMAX, cell viability assay (KE97)	ADC activity in cell viability assay; IC50 (nM) (NCI-H82)	AMAX, cell viability assay (DND-41)	AMAX, cell viability assay (SR786)	AMAX, cell viability assay (CML-T1)	Apparent FACS binding (at 5 ug/ml) (NIH3T3 cells)	Apparent FACS binding (at 5 ug/ml) [1]	Apparent FACS binding (at 5 ug/ml) (CXCR4 (HEK293-CXCR4))	Apparent FACS binding (at 5 ug/ml) (CCR8 (CHO-CCR8))	ADCC activity; IC50 (nM) [2]	Apparent FACS binding (at 5 ug/ml) [3]
B1	> 95%	> 95%	No killing	<20% AMAX	90%	60%						
B2							No binding	No binding	No binding	No binding	Yes, but insufficient	Binding
